Measurements reported in paper PMC9482650, “Quantitative fragmentomics allow affinity mapping of interactomes” (Nature Communications, 2022).

T1: RHPN1, Q8TCX5
T1 sequence (Q8TCX5 508-602, limits assumed, looked up): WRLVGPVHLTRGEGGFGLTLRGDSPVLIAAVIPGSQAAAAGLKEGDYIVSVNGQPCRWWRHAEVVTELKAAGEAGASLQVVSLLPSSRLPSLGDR

T2: DLG3_3, Q92796
T2 sequence (Q92796 374-475, limits assumed, looked up): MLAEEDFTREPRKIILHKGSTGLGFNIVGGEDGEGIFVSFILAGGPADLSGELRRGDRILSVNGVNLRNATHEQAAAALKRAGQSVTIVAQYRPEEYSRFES

T3: NHERF3_1, Q5T2W1
T3 sequence (Q5T2W1 4-100, limits assumed, looked up): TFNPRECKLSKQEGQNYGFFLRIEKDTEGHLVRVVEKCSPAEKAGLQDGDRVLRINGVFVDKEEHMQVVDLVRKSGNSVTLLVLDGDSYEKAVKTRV

T4: TIAM2, Q8IVF5
T4 sequence (Q8IVF5 885-986, limits assumed, looked up): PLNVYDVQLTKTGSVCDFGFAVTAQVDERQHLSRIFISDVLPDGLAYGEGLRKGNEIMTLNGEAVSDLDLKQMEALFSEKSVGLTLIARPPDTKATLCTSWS

T5: APBA1_1, Q02410
T5 sequence (Q02410 651-752, limits assumed, looked up): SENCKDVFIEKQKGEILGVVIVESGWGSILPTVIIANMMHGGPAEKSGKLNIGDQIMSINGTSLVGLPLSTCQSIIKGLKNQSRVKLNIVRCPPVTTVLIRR

T6: GRIP1_5, Q9Y3R0
T6 sequence (Q9Y3R0 568-668, limits assumed, looked up): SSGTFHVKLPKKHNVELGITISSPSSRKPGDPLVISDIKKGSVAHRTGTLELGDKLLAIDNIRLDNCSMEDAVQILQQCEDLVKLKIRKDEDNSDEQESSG

T7: APBA1_2, Q02410
T7 sequence (Q02410 742-832, limits assumed, looked up): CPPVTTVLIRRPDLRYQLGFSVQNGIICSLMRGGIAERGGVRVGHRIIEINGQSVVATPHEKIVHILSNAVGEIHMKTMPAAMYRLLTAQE

T8: MPP2, Q14168
T8 sequence (Q14168 180-250, limits assumed, looked up): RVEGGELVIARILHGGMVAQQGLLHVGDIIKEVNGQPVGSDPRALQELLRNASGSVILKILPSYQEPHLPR

T9: DLG3_1, Q92796
T9 sequence (Q92796 125-227, limits assumed, looked up): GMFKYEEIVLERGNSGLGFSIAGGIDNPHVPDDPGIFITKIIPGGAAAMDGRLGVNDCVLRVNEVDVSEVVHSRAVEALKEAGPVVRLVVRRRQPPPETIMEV

T10: GRIP1_3, Q9Y3R0
T10 sequence (Q9Y3R0 247-346, limits assumed, looked up): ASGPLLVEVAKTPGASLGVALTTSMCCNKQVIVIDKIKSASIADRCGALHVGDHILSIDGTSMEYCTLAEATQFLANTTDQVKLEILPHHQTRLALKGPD

T11: LNX2_2, Q8N448
T11 sequence (Q8N448 334-432, limits assumed, looked up): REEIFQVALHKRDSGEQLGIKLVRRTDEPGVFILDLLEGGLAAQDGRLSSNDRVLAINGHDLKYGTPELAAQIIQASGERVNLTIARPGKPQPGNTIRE

T12: SYNJ2BP, P57105
T12 sequence (P57105 8-110, limits assumed, looked up): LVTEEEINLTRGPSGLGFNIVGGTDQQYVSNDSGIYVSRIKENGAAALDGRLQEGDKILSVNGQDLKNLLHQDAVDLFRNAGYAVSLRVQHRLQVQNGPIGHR


Molecular target: T1, RHPN1, Q8TCX5
Assay: holdup assay
Set-up: key: below the threshold = too weak to quantify, mostly under pKd 3.1 to 4
Conditions: plain residues with an end cap or a label only (N-terminal biotin on a linker: ado-ado)

Row | Binder | pKd
1 | DTTVPESEDL [MYOZ2, Q9NPC6] | below the threshold
2 | SAKVRTVTSV [RASL11B, Q9BPW5] | 3.83

Molecular target: HTRA1, Q92743
Assay: holdup assay
Set-up: key: below the threshold = too weak to quantify, mostly under pKd 3.1 to 4
Conditions: plain residues with an end cap or a label only (N-terminal biotin on a linker: ado-ado)

Sequence of HTRA1, Q92743 (Q92743 360-477): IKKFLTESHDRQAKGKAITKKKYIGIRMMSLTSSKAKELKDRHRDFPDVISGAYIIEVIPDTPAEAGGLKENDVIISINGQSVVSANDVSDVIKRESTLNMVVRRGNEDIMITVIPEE

Row | Binder | pKd
3 | DTTVPESEDL [MYOZ2, Q9NPC6] | below the threshold
4 | SAKVRTVTSV [RASL11B, Q9BPW5] | 3.95

Molecular target: T2, DLG3_3, Q92796
Assay: holdup assay
Set-up: key: below the threshold = too weak to quantify, mostly under pKd 3.1 to 4
Conditions: plain residues with an end cap or a label only (N-terminal biotin on a linker: ado-ado)

Row | Binder | pKd
5 | DTTVPESEDL [MYOZ2, Q9NPC6] | below the threshold
6 | SAKVRTVTSV [RASL11B, Q9BPW5] | 4.89

Molecular target: MAGI1_1, Q96QZ7
Assay: holdup assay
Set-up: key: below the threshold = too weak to quantify, mostly under pKd 3.1 to 4
Conditions: plain residues with an end cap or a label only (N-terminal biotin on a linker: ado-ado)

Sequence of MAGI1_1, Q96QZ7 (Q96QZ7 1-106): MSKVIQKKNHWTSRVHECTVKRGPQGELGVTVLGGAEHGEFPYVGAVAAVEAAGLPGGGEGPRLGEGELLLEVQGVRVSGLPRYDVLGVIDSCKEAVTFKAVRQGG

Row | Binder | pKd
7 | DTTVPESEDL [MYOZ2, Q9NPC6] | below the threshold
8 | SAKVRTVTSV [RASL11B, Q9BPW5] | 3.52

Molecular target: NOS1, P29475
Assay: holdup assay
Set-up: key: below the threshold = too weak to quantify, mostly under pKd 3.1 to 4
Conditions: plain residues with an end cap or a label only (N-terminal biotin on a linker: ado-ado)

Sequence of NOS1, P29475 (P29475 9-101): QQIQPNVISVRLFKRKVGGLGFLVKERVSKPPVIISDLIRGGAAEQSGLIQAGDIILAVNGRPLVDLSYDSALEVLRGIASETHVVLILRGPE

Row | Binder | pKd
9 | DTTVPESEDL [MYOZ2, Q9NPC6] | below the threshold
10 | SAKVRTVTSV [RASL11B, Q9BPW5] | 3.9

Molecular target: T3, NHERF3_1, Q5T2W1
Assay: holdup assay
Set-up: key: below the threshold = too weak to quantify, mostly under pKd 3.1 to 4
Conditions: plain residues with an end cap or a label only (N-terminal biotin on a linker: ado-ado)

Row | Binder | pKd
11 | DTTVPESEDL [MYOZ2, Q9NPC6] | below the threshold
12 | SAKVRTVTSV [RASL11B, Q9BPW5] | below the threshold

Molecular target: GRID2IP_2, A4D2P6
Assay: holdup assay
Set-up: key: below the threshold = too weak to quantify, mostly under pKd 3.1 to 4
Conditions: plain residues with an end cap or a label only (N-terminal biotin on a linker: ado-ado)

Sequence of GRID2IP_2, A4D2P6 (A4D2P6 272-370): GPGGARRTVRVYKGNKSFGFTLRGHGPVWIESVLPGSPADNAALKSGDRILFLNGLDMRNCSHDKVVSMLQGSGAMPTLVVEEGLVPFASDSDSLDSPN

Row | Binder | pKd
13 | DTTVPESEDL [MYOZ2, Q9NPC6] | below the threshold
14 | SAKVRTVTSV [RASL11B, Q9BPW5] | 4.2

Molecular target: T4, TIAM2, Q8IVF5
Assay: holdup assay
Set-up: key: below the threshold = too weak to quantify, mostly under pKd 3.1 to 4
Conditions: plain residues with an end cap or a label only (N-terminal biotin on a linker: ado-ado)

Row | Binder | pKd
15 | DTTVPESEDL [MYOZ2, Q9NPC6] | below the threshold
16 | SAKVRTVTSV [RASL11B, Q9BPW5] | below the threshold

Molecular target: GRIP2_4, Q9C0E4
Assay: holdup assay
Set-up: key: below the threshold = too weak to quantify, mostly under pKd 3.1 to 4
Conditions: plain residues with an end cap or a label only (N-terminal biotin on a linker: ado-ado)

Sequence of GRIP2_4, Q9C0E4 (Q9C0E4 446-548): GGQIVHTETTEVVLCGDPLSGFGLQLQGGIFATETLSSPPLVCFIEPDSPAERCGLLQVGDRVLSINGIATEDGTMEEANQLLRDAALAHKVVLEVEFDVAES

Row | Binder | pKd
17 | DTTVPESEDL [MYOZ2, Q9NPC6] | below the threshold
18 | SAKVRTVTSV [RASL11B, Q9BPW5] | below the threshold

Molecular target: T5, APBA1_1, Q02410
Assay: holdup assay
Set-up: key: below the threshold = too weak to quantify, mostly under pKd 3.1 to 4
Conditions: plain residues with an end cap or a label only (N-terminal biotin on a linker: ado-ado)

Row | Binder | pKd
19 | DTTVPESEDL [MYOZ2, Q9NPC6] | below the threshold
20 | SAKVRTVTSV [RASL11B, Q9BPW5] | below the threshold

Molecular target: IL16_3, Q14005
Assay: holdup assay
Set-up: key: below the threshold = too weak to quantify, mostly under pKd 3.1 to 4
Conditions: plain residues with an end cap or a label only (N-terminal biotin on a linker: ado-ado)

Sequence of IL16_3, Q14005 (Q14005 1107-1207): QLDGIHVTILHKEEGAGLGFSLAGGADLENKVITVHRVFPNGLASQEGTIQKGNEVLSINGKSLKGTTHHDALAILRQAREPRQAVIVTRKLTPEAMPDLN

Row | Binder | pKd
21 | DTTVPESEDL [MYOZ2, Q9NPC6] | below the threshold
22 | SAKVRTVTSV [RASL11B, Q9BPW5] | below the threshold

Molecular target: Inadl_8, Q8NI35
Assay: holdup assay
Set-up: key: below the threshold = too weak to quantify, mostly under pKd 3.1 to 4
Conditions: plain residues with an end cap or a label only (N-terminal biotin on a linker: ado-ado)

Sequence of Inadl_8, Q8NI35 (Q8NI35 1425-1530): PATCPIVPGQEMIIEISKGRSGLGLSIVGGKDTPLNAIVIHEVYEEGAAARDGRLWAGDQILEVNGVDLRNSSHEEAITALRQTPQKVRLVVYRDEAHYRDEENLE

Row | Binder | pKd
23 | DTTVPESEDL [MYOZ2, Q9NPC6] | below the threshold
24 | SAKVRTVTSV [RASL11B, Q9BPW5] | 4.43

Molecular target: AHNAK1, Q09666
Assay: holdup assay
Set-up: key: below the threshold = too weak to quantify, mostly under pKd 3.1 to 4
Conditions: plain residues with an end cap or a label only (N-terminal biotin on a linker: ado-ado)

Sequence of AHNAK1, Q09666 (Q09666 4-100): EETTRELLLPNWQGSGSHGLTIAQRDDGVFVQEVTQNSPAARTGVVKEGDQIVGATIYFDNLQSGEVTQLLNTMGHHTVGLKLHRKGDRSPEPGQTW

Row | Binder | pKd
25 | DTTVPESEDL [MYOZ2, Q9NPC6] | below the threshold
26 | SAKVRTVTSV [RASL11B, Q9BPW5] | below the threshold

Molecular target: DLG4_1, P78352
Assay: holdup assay
Set-up: key: below the threshold = too weak to quantify, mostly under pKd 3.1 to 4
Conditions: plain residues with an end cap or a label only (N-terminal biotin on a linker: ado-ado)

Sequence of DLG4_1, P78352 (P78352 62-152): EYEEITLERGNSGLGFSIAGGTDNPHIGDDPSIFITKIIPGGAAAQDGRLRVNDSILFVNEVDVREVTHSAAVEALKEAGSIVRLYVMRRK

Row | Binder | pKd
27 | DTTVPESEDL [MYOZ2, Q9NPC6] | below the threshold
28 | SAKVRTVTSV [RASL11B, Q9BPW5] | 4.65

Molecular target: T6, GRIP1_5, Q9Y3R0
Assay: holdup assay
Set-up: key: below the threshold = too weak to quantify, mostly under pKd 3.1 to 4
Conditions: plain residues with an end cap or a label only (N-terminal biotin on a linker: ado-ado)

Row | Binder | pKd
29 | DTTVPESEDL [MYOZ2, Q9NPC6] | below the threshold
30 | SAKVRTVTSV [RASL11B, Q9BPW5] | below the threshold

Molecular target: FRMPD2_3, Q68DX3
Assay: holdup assay
Set-up: key: below the threshold = too weak to quantify, mostly under pKd 3.1 to 4
Conditions: plain residues with an end cap or a label only (N-terminal biotin on a linker: ado-ado)

Sequence of FRMPD2_3, Q68DX3 (Q68DX3 1073-1166): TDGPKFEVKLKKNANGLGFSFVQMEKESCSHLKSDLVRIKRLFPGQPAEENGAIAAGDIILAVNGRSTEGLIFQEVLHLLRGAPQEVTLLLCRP

Row | Binder | pKd
31 | DTTVPESEDL [MYOZ2, Q9NPC6] | below the threshold
32 | SAKVRTVTSV [RASL11B, Q9BPW5] | below the threshold

Molecular target: T7, APBA1_2, Q02410
Assay: holdup assay
Set-up: key: below the threshold = too weak to quantify, mostly under pKd 3.1 to 4
Conditions: plain residues with an end cap or a label only (N-terminal biotin on a linker: ado-ado)

Row | Binder | pKd
33 | DTTVPESEDL [MYOZ2, Q9NPC6] | below the threshold
34 | SAKVRTVTSV [RASL11B, Q9BPW5] | 3.92

Molecular target: SNX27, Q96L92
Assay: holdup assay
Set-up: key: below the threshold = too weak to quantify, mostly under pKd 3.1 to 4
Conditions: plain residues with an end cap or a label only (N-terminal biotin on a linker: ado-ado)

Row | Binder | pKd
35 | DTTVPESEDL [MYOZ2, Q9NPC6] | 3.65
36 | SAKVRTVTSV [RASL11B, Q9BPW5] | 4.73

Molecular target: T8, MPP2, Q14168
Assay: holdup assay
Set-up: key: below the threshold = too weak to quantify, mostly under pKd 3.1 to 4
Conditions: plain residues with an end cap or a label only (N-terminal biotin on a linker: ado-ado)

Row | Binder | pKd
37 | DTTVPESEDL [MYOZ2, Q9NPC6] | below the threshold
38 | SAKVRTVTSV [RASL11B, Q9BPW5] | below the threshold

Molecular target: T9, DLG3_1, Q92796
Assay: holdup assay
Set-up: key: below the threshold = too weak to quantify, mostly under pKd 3.1 to 4
Conditions: plain residues with an end cap or a label only (N-terminal biotin on a linker: ado-ado)

Row | Binder | pKd
39 | DTTVPESEDL [MYOZ2, Q9NPC6] | below the threshold
40 | SAKVRTVTSV [RASL11B, Q9BPW5] | 3.84

Molecular target: PICK1, Q9NRD5
Assay: holdup assay
Set-up: key: below the threshold = too weak to quantify, mostly under pKd 3.1 to 4
Conditions: plain residues with an end cap or a label only (N-terminal biotin on a linker: ado-ado)

Sequence of PICK1, Q9NRD5 (Q9NRD5 17-115): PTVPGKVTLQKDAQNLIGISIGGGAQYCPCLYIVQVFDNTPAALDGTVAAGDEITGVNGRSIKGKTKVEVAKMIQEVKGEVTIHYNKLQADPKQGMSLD

Row | Binder | pKd
41 | DTTVPESEDL [MYOZ2, Q9NPC6] | below the threshold
42 | SAKVRTVTSV [RASL11B, Q9BPW5] | below the threshold

Molecular target: T10, GRIP1_3, Q9Y3R0
Assay: holdup assay
Set-up: key: below the threshold = too weak to quantify, mostly under pKd 3.1 to 4
Conditions: plain residues with an end cap or a label only (N-terminal biotin on a linker: ado-ado)

Row | Binder | pKd
43 | DTTVPESEDL [MYOZ2, Q9NPC6] | below the threshold
44 | SAKVRTVTSV [RASL11B, Q9BPW5] | below the threshold

Molecular target: T11, LNX2_2, Q8N448
Assay: holdup assay
Set-up: key: below the threshold = too weak to quantify, mostly under pKd 3.1 to 4
Conditions: plain residues with an end cap or a label only (N-terminal biotin on a linker: ado-ado)

Row | Binder | pKd
45 | DTTVPESEDL [MYOZ2, Q9NPC6] | below the threshold
46 | SAKVRTVTSV [RASL11B, Q9BPW5] | 4.9

Molecular target: GRIP2_5, Q9C0E4
Assay: holdup assay
Set-up: key: below the threshold = too weak to quantify, mostly under pKd 3.1 to 4
Conditions: plain residues with an end cap or a label only (N-terminal biotin on a linker: ado-ado)

Sequence of GRIP2_5, Q9C0E4 (Q9C0E4 544-642): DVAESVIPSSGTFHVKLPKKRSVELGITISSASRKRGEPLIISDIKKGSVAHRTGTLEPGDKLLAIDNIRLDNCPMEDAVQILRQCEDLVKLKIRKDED

Row | Binder | pKd
47 | DTTVPESEDL [MYOZ2, Q9NPC6] | below the threshold
48 | SAKVRTVTSV [RASL11B, Q9BPW5] | below the threshold

Molecular target: T12, SYNJ2BP, P57105
Assay: holdup assay
Set-up: key: below the threshold = too weak to quantify, mostly under pKd 3.1 to 4
Conditions: plain residues with an end cap or a label only (N-terminal biotin on a linker: ado-ado)

Row | Binder | pKd
49 | DTTVPESEDL [MYOZ2, Q9NPC6] | below the threshold
50 | SAKVRTVTSV [RASL11B, Q9BPW5] | 4.95

Molecular target: PDLIM1, O00151
Assay: holdup assay
Set-up: key: below the threshold = too weak to quantify, mostly under pKd 3.1 to 4
Conditions: plain residues with an end cap or a label only (N-terminal biotin on a linker: ado-ado)

Sequence of PDLIM1, O00151 (O00151 1-87): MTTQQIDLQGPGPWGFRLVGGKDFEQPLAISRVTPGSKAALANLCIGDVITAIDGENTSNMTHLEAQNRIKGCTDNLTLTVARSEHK

Row | Binder | pKd
51 | DTTVPESEDL [MYOZ2, Q9NPC6] | 5.1
52 | SAKVRTVTSV [RASL11B, Q9BPW5] | below the threshold
